Measured values from IntAct's records for PubMed 20051244.

B1: Octaprenyl diphosphate synthase (Escherichia coli (strain K12)), P0AD57 (parent)
chain: MNLEKINELTAQDMAGVNAAILEQLNSDVQLINQLGYYIVSGGGKRIRPMIAVLAARAVGYEGNAHVTIAALIEFIHTATLLHDDVVDESDMRRGKATANAAFGNAASVLVGDFIYTRAFQMMTSLGSLKVLEVMSEAVNVIAEGEVLQLMNVNDPDITEENYMRVIYSKTARLFEAAAQCSGILAGCTPEEEKGLQDYGRYLGTAFQLIDDLLDYNADGEQLGKNVGDDLNEGKPTLPLLHAMHHGTPEQAQMIRTAIEQGNGRHLLEPVLEAMNACGSLEWTRQRAEEEADKAIAALQVLPDTPWREALIGLAHIAVQRDR
partner: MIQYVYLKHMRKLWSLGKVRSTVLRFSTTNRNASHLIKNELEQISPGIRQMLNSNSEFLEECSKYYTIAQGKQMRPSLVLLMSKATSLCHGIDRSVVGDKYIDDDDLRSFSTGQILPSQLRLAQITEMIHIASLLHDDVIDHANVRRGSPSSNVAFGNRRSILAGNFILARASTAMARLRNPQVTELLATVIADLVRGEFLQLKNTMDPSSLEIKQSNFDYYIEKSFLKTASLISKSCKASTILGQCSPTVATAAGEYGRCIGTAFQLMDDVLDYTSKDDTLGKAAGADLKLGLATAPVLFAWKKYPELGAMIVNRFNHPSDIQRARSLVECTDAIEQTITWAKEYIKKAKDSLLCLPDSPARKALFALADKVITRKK
B2: Octaprenyl diphosphate synthase (Escherichia coli (strain K12)), P0AD57 (parent)
chain: B1 chain
partner: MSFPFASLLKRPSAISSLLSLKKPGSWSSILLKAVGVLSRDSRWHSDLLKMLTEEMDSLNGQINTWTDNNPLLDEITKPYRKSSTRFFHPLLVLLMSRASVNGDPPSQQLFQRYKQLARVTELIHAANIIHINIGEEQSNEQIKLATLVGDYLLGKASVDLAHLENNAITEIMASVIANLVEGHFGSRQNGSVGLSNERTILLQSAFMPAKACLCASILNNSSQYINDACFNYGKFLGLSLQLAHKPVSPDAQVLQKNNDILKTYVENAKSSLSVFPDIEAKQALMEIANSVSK

Variants of: B1
Details: with dps1_schpo dps1, O43091

| Variant | effect of a mutation on the interaction |
| --- | --- |
| MNLEKINELTAQDMAGVNAAILEQLNSDVQLINQLGYYIVSGGGKRIRPMIAVLAARAVGYEGNAHVTIAALIEFIHTATLLHDDVVDESDMRRGKATANAAFGNAASVLVGDFIYTRAFQMMTSLGSLKVLEVMSEAVNVIAEGEVLQLMNVNDPDITEENYMRVIYSKTARLFEAAAQCSGILAGCTPEEEKGLQDYGRYLGTAFQLIDDLLDYNADGEQLGKNVGDDLNEGKPTLPLLHAMHHGTPEQAQMIRTAIEQGNGRHLLEPVLEAMNACGSLEWTRQRAEEEADKAIAALQVLPDTPWREALIGLAHIAVQADR [R321A] | increasing interaction |

Variants of: B2
Details: with dlp1_schpo dlp1, O13851

| Variant | effect of a mutation on the interaction |
| --- | --- |
| MNLEKINELTAQDMAGVNAAILEQLNSDVQLINQLGYYIVSGGGKRIRPMIAVLAARAVGYEGNAHVTIAALIEFIHTATLLHDDVVDESDMRRGKATANAAFGNAASVLVGDFIYTRAFQMMTSLGSLKVLEVMSEAVNVIAEGEVLQLMNVNDPDITEENYMRVIYSKTARLFEAAAQCSGILAGCTPEEEKGLQDYGRYLGTAFQLIDDLLDYNADGEQLGKNVGDDLNEGKPTLPLLHAMHHGTPEQAQMIRTAIEQGNGRHLLEPVLEAMNACGSLEWTRQRAEEEADKAIAALQVLPDTPWREALIGLAHIAVQADR [R321A] | decreasing interaction |
